Values quoted from earlier work in patent US20170173060A1, “ACTIVATION OF THE ENDOGENOUS ILEAL BRAKE HORMONE PATHWAY FOR ORGAN REGENERATION AND RELATED COMPOSITIONS, METHODS OF TREATMENT, DIAGNOSTICS, AND REGULATORY SYSTEMS” (VOLANT HOLDINGS GMBH, priority 2014, published 2017).

Tests used:
[1] = tested on: severely streptozotocin-diabetic rats; conditions: rat, in vivo
MIN-6 cells = conditions: immunoprecipitation and western blotting

B1: EGF (protein, UniProt P01133 23-1207, looked up)
Pro-epidermal growth factor: PQHWSCPEGTLAGNGNSTCVGPAPFLIFSHGNSIFRIDTEGTNYEQLVVDAGVSVIMDFHYNEKRIYWVDLERQLLQRVFLNGSRQERVCNIEKNVSGMAINWINEEVIWSNQQEGIITVTDMKGNNSHILLSALKYPANVAVDPVERFIFWSSEVAGSLYRADLDGVGVKALLETSEKITAVSLDVLDKRLFWIQYNREGSNSLICSCDYDGGSVHISKHPTQHNLFAMSLFGDRIFYSTWKMKTIWIANKHTGKDMVRINLHSSFVPLGELKVVHPLAQPKAEDDTWEPEQKLCKLRKGNCSSTVCGQDLQSHLCMCAEGYALSRDRKYCEDVNECAFWNHGCTLGCKNTPGSYYCTCPVGFVLLPDGKRCHQLVSCPRNVSECSHDCVLTSEGPLCFCPEGSVLERDGKTCSGCSSPDNGGCSQLCVPLSPVSWECDCFPGYDLQLDEKSCAASGPQPFLLFANSQDIRHMHFDGTDYGTLLSQQMGMVYALDHDPVENKIYFAHTALKWIERANMDGSQRERLIEEGVDVPEGLAVDWIGRRFYWTDRGKSLIGRSDLNGKRSKIITKENISQPRGIAVHPMAKRLFWTDTGINPRIESSSLQGLGRLVIASSDLIWPSGITIDFLTDKLYWCDAKQSVIEMANLDGSKRRRLTQNDVGHPFAVAVFEDYVWFSDWAMPSVMRVNKRTGKDRVRLQGSMLKPSSLVVVHPLAKPGADPCLYQNGGCEHICKKRLGTAWCSCREGFMKASDGKTCLALDGHQLLAGGEVDLKNQVTPLDILSKTRVSEDNITESQHMLVAEIMVSDQDDCAPVGCSMYARCISEGEDATCQCLKGFAGDGKLCSDIDECEMGVPVCPPASSKCINTEGGYVCRCSEGYQGDGIHCLDIDECQLGEHSCGENASCTNTEGGYTCMCAGRLSEPGLICPDSTPPPHLREDDHHYSVRNSDSECPLSHDGYCLHDGVCMYIEALDKYACNCVVGYIGERCQYRDLKWWELRHAGHGQQQKVIVVAVCVVVLVMLLLLSLWGAHYYRTQKLLSKNPKNPYEESSRDVRSRRPADTEDGMSSCPQPWFVVIKEHQDLKNGGQPVAGEDGQAADGSMQPTSWRQEPQLCGMGTEQGCWIPVSSDKGSCPQVMERSFHMPSYGTQTLEGGVEKPHSLLSANPLWQQRALDPPHQMELTQ
modifications: Pro-epidermal growth factor
For B1, the glucose tolerance [1] is given as “neither gastrin nor EGF alone improved glucose tolerance”.

B2: Betacellulin (protein, UniProt P35070 32-111, looked up)
Betacellulin: DGNSTRSPETNGLLCGDPEENCAATTTQSKRKGHFSRCPKQYKHYCIKGRCRFVVAEQTPSCVCDEGYIGARCERVDLFY
modifications: Betacellulin
notes: member of the epidermal growth factor family
In the case of B2, the “phosphorylation of EGF receptors (ErbBs)” value (MIN-6 cells) is given as “induced phosphorylation of only ErbB-1 and ErbB-2”.
